From patent US20070238184A1, “Amyloid beta protein channel structure and uses thereof in identifying potential drug molecules for neurodegenerative diseases” (The Regents of the University of California, priority 2005, published 2007)

Assay: Single-channel current recording in planar phospholipid bilayer membranes
Details: voltage clamp, peptide added to one side, pH 7.4
Method: Planar phospholipid bilayer membranes were formed as described by Mirzabekov et al. (1999) Meth. Enzymol. 294: 61-74. A bubble of lipid dissolved in heptane was placed at the end of a small (100-300 μm) Teflon tube. Silver/silver chloride electrodes connected the aqueous components bounding the membrane to a voltage clamp. Ion-channel currents through the membrane were recorded by an Axopatch amplifier (Axon Instruments, Sunnyvale, Calif.). Data were filtered at 1 kHz and stored on VHS tape. Membrane capacitance and resistance were monitored continuously to ensure the formation and stability of reproducible membranes and the proper membrane thickness. […] Peptide samples were introduced by perfusing the aqueous solution bounding one side of the membrane.

B1: SAA: human apo-serum amyloid A purchased from PeproTech (protein, UniProt P0DJI8 19-122, looked up)
Serum amyloid A-1 protein: RSFFSFLGEAFDGARDMWRAYSDMREANYIGSDKYFHARGNYDAAKRGPGGAWAAEVITDARENIQRFFGHGAEDSLADQAANEWGRSGKDPNHFRPAGLPEKY
- induction of single-channel ion currents / conductances: Current jumps corresponding to the opening or closing of individual ion channels can be observed
